Data reported in paper PMC6109925, “Structural and functional analysis of cystatin E reveals enzymologically relevant dimer and amyloid fibril states” (The Journal of Biological Chemistry, 2018).
One block for each molecule: values may come before it.

How the values were obtained:
[1] = target: human legumain, wild type, activated (human) (UniProt Q99538); test: SEC; S200 10/300 GL; legumain (0.5 mg/ml) incubated with dimeric hCE 1:1 (1 AEP and 1 hCE dimer) or monomeric hCE 1:2 at pH 5.5 for 10 min on ice; fractions on SDS-PAGE; details: scale: hCE chains per legumain
Sequence of human legumain, wild type, activated (human) (Q99538 18-323): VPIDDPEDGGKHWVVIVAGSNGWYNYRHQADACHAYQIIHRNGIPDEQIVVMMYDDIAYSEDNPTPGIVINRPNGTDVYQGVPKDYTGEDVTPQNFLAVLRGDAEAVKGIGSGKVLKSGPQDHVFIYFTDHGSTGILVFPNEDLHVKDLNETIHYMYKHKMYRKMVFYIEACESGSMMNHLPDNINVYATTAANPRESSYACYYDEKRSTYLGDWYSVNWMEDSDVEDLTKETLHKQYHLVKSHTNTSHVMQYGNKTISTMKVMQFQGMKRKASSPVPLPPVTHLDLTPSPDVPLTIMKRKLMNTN

[2] = target: human legumain, wild type, activated (human) (UniProt Q99538); test: enzyme inhibition kinetics (Morrison equation for tight binding inhibitors); 50 mM citric acid pH 5.5, 100 mM NaCl, 0.05% Tween 20; 100 μM Z-AAN-AMC, 0.01 to 5 nM hCE, 2 nM legumain, 37 °C; triplicates
[3] = target: glycosylated human cystatin E (human) (UniProt Q15828); test: SEC; S75 10/300 GL, 20 mM citric acid pH 5.5, 100 mM NaCl; sample incubated 10 min at ≥70 °C (70, 80 or 85 °C), pH 5.5, then chilled on ice; monomer to dimer
[4] = target: human cystatin E, full-length wild type, monomeric (human) (UniProt Q15828); test: SEC; S75 10/300 GL; WT cystatin E incubated at 60 °C in citric acid buffer at pH 3.0 before injection; monomer to dimer
[5] = target: human cystatin E, full-length wild type, monomeric (human) (UniProt Q15828); test: SEC; S75 10/300 GL, 20 mM citric acid pH 5.5, 100 mM NaCl; sample incubated 10 min at ≥70 °C (70, 80 or 85 °C), pH 5.5, then chilled on ice; monomer to dimer
[6] = target: human cystatin E, full-length wild type, monomeric (human) (UniProt Q15828); test: thioflavin T fluorescence; fibril formation after 10 min at 80 °C, 10 mg/ml, 50 mM citric acid, 100 mM NaCl (pH 3–6) or 50 mM Tris, 100 mM NaCl (pH 7.0); ThT fluorescence at 482 nm
[7] = target: the molecule itself; test: SEC; S75 10/300 GL, 20 mM citric acid pH 5.5, 100 mM NaCl; sample incubated 10 min at ≥70 °C (70, 80 or 85 °C), pH 5.5, then chilled on ice; monomer to dimer
[8] = target: the molecule itself; test: SEC; S75 10/300 GL, 20 mM citric acid pH 5.5, 100 mM NaCl, 250 μl sample; no destabilising heat (ΔhCE kept at 4 °C and 37 °C before injection); oligomerisation state

B1: human cystatin C, wild type (natural protein, UniProt P01034 27-146, looked up)
chain: SSPGKPPRLVGGPMDASVEEEGVRRALDFAVGEYNKASNDMYHSRALQVVRARKQIVAGVNYFLDVELGRTTCTKTQPNLDNCPFHDQPHLKRKAFCSFQIYAVPWQGTMTLSKSTCQDA
notes: N terminus Ser1 after removal of the pelB leader. numbers count on: the mature protein; Called 'untagged hCC' in the pull-down (it has no Strep-tag), while the methods give a C-terminal His6 tag for the expression constructs; also called hCC; WT cystatin C; source: E. coli Bl21(DE3), periplasm (pelB leader), purified (nickel-nitrilotriacetic acid resin, SEC)
stoichiometry N [7]: 2

B2: N-terminally truncated human cystatin E, Δ(Arg4–Leu13)hCE (domain or fragment)
chain: MELSPDDPQVQKAAQAAVASYNMGSNSIYYFRDTHIIKAQSQLVAGIKYFLTMEMGSTDCRKTRVTGDHVDLTTCPLAAGAQQEKLRCDFEVLVVPWQNSSQLLKHNCVQM
stoichiometry N [8]: 2

The next lines start with the values.

stoichiometry N [1]: 2 | Ki [2]: 0.0135 nM
Molecule: dimeric human cystatin E (domain-swapped dimer) (from UniProt Q15828 29-149) (complex)

stoichiometry N [3]: 2
Molecule: glycosylated human cystatin E (from UniProt Q15828 29-149) (natural protein)

stoichiometry N [4]: 2 | percent converted to the dimer at 70 °C [5]: > 90% | stoichiometry N [5]: 2 | fold increase in ThT signal after incubation at pH 3.0 [6]: 4 fold | Ki [2]: 0.0107 nM
Molecule: human cystatin E, full-length wild type, monomeric (from UniProt Q15828 29-149) (natural protein)
